Data on two molecules can be found in patent US20050026828A1.

For experiment [1], the target named is human prokineticin receptor 1 (human) (UniProt Q8TCW9). The experiment is described as follows: cell-based or functional assay.
Experiment [2] deals with human prokineticin receptor 2 (human) (UniProt Q8NFJ6). The experiment is described as follows: cell-based or functional assay.
Sequence of UniProt Q8NFJ6 (Q8NFJ6 whole entry): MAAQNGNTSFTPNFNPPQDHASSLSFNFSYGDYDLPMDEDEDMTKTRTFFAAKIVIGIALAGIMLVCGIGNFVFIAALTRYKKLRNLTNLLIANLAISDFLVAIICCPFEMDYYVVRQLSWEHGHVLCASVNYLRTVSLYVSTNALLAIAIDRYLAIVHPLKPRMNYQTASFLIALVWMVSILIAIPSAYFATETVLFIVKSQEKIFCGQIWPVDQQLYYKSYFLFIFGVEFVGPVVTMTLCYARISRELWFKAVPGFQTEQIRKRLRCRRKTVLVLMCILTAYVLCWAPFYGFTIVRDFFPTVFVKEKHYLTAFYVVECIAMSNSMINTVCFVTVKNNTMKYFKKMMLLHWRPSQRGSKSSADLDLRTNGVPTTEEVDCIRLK

Sequence of UniProt Q8TCW9 (Q8TCW9 whole entry I255M/S256T): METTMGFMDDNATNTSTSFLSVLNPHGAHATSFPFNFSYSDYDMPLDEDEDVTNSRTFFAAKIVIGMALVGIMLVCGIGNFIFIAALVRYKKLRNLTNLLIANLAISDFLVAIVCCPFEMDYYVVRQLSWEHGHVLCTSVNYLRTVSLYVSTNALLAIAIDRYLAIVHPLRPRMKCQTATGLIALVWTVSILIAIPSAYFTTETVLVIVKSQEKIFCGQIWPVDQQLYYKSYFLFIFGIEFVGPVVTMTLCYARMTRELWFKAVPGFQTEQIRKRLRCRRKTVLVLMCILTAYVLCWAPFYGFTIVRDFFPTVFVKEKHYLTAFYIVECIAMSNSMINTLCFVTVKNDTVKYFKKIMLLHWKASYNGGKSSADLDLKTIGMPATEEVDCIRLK

B1: MV PK1 (ligand)
chain: MVITGACERDVQCGAGTCCAISLWLRGLRMCTPLGREGEECHPGSHKVPFFRKRKHHTCPCLPNLLCSRFPDGRYRCSMDLKNINF
In the case of B1, in experiment [1], the Antagonistic Activity of PK mutants (Calcium Mobilization Assay), ligand PK1 is 6 nM and the Antagonistic Activity of PK mutants (Calcium Mobilization Assay), ligand PK2 is 110 nM. In experiment [2], the Antagonistic Activity of PK mutants (Calcium Mobilization Assay), ligand PK1 came out at 16 nM and the Antagonistic Activity of PK mutants (Calcium Mobilization Assay), ligand PK2 came to 29 nM.

B2: Met PK1 (ligand)
chain: MAVITGACERDVQCGAGTCCAISLWLRGLRMCTPLGREGEECHPGSHKVPFFRKRKHHTCPCLPNLLCSRFPDGRYRCSMDLKNINF
Consider B2, for which the Antagonistic Activity of PK mutants (Calcium Mobilization Assay), ligand PK1 in experiment [1] was 9 nM; in experiment [2] it was 15 nM. In addition, the results for the Antagonistic Activity of PK mutants (Calcium Mobilization Assay), ligand PK2 in experiment [1] and in experiment [2] were 90 nM and 30 nM, respectively.
